Data from patent publication US20060183195A1.

How the values were obtained:
[1] = biological target: native human CD4 on the cell surface (human) (UniProt P01730); assay: flow cytometry, serial dilutions on SupT1 cells, half-maximal fluorescence
[2] = biological target: recombinant soluble human CD4 (human) (UniProt P01730); assay: SPR, sCD4 amine-coupled to sensor chip, antibody flowed over

Ka [1] [M⁻¹]	koff [2] [s⁻¹]	Substance
5e+09		chimeric Leu3a (antibody)
	4.2e-05	Leu3a (antibody)
